Source: patent publication US20020115140A1

Target: GPA1 protein (yeast) (UniProt P08539)
Assay: cell-based or functional assay

UniProt P08539, sequence (P08539 2-472 limits assumed): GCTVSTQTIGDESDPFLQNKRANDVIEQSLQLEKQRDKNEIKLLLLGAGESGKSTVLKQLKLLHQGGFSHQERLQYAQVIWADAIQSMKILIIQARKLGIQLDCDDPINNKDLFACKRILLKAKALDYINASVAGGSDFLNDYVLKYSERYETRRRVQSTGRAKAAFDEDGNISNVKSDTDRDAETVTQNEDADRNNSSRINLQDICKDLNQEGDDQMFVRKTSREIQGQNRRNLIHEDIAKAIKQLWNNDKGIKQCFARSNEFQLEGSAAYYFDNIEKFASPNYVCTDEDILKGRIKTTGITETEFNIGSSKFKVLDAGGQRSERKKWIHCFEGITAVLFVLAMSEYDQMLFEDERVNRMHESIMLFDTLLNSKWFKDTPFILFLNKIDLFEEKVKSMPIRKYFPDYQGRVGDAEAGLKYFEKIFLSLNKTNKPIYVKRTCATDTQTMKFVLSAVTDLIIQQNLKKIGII

**Q.** With “murine RATH1.1 gene product (from UniProt P97428 1-201)” as the substance, how does the diameter of growth inhibition zone; strain MY169 (sst2-, RATH1.1 under ADH2 promoter); 1 µg alpha factor read?
**A.** Its diameter of growth inhibition zone; strain MY169 (sst2-, RATH1.1 under ADH2 promoter); 1 µg alpha factor is 0.8 cm.

**Q.** And the diameter of growth inhibition zone; strain MY169 (sst2-, RATH1.1 under ADH2 promoter); 10 µg alpha factor?
**A.** Its diameter of growth inhibition zone; strain MY169 (sst2-, RATH1.1 under ADH2 promoter); 10 µg alpha factor is 1.8 cm.

**Q.** What about the diameter of growth inhibition zone; strain MY173 (SST2+, RATH1.1 under ADH2 promoter); 10 µg alpha factor of the same substance?
**A.** Its diameter of growth inhibition zone; strain MY173 (SST2+, RATH1.1 under ADH2 promoter); 10 µg alpha factor is 1.6 cm.
